According to patent US20240376170A1 (BRIGHT PEAK THERAPEUTICS, published 2024):
[ ]: non-standard residue; d: D form. 8x polyethylene glycol‑amino = O-(8x polyethylene glycol-amino)-tyrosine, SITE 45; 9x polyethylene glycol‑azido = O-(9x polyethylene glycol-azido)-tyrosine, SITE 42; Ygp = O-(8x polyethylene glycol-amino)-tyrosine (Tyr, amino-capped PEG8); Yn3 = O-(9x polyethylene glycol-azido)-tyrosine (Tyr, azide-capped PEG9); hSer = N[C@@H](CCO)C(=O)O; Nle = CCCC[C@H](N)C(=O)O

T1: IL-2 receptor βγ complex (human, UniProt P14784 27-551; P31785 23-369)
T1 sequence (looked up) 1: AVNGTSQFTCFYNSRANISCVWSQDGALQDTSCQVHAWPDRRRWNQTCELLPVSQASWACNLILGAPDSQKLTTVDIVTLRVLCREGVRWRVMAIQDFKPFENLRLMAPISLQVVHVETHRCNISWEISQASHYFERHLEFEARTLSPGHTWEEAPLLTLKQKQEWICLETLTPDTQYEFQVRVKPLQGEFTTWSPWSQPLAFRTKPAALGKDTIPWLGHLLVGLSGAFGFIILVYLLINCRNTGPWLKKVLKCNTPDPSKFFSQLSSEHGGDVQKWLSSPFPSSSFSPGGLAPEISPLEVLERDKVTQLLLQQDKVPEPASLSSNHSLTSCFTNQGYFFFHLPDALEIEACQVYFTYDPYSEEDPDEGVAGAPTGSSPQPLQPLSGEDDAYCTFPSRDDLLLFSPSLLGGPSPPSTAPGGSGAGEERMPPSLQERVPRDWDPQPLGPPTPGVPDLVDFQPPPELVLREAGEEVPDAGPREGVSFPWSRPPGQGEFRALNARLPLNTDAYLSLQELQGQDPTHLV
T1 sequence (looked up) 2: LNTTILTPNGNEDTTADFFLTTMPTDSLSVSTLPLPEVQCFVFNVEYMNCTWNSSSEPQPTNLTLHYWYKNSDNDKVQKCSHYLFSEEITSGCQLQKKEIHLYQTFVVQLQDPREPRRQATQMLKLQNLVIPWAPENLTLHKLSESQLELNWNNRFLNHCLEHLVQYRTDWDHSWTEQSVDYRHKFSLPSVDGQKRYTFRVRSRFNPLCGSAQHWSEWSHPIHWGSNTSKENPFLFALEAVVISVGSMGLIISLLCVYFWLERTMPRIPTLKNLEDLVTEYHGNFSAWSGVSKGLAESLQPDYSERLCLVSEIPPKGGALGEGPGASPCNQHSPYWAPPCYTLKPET


target: T1, IL-2 receptor βγ complex; assay: cell-based or functional assay

Binder	Average EC50, pSTAT5 Assay in NK cells
CMP-310, MMP2 cleaved molecule (ligand, also: m73 after MMP2 cleavage: Lys23 side-chain branch (cleavable peptide) cut, remnant not given here) APTSSSTKKTQLQLEHLLLDLQKILNGINNYKNPKLTR[Nle]L[hSer][Yn3]KF[Ygp][Nle]PKKATELKHLQCLEEELKPLEEVL[hSer]LAQSKNFHLRPRDLISNINVIVLELKGSETTF[hSer]CEYADETATIVEFLNRWITFSQSIISTLT	4.07 nM
CMP-311, MMP2 cleaved molecule (ligand, also: m77 after MMP2 cleavage: Lys23 side-chain branch (cleavable peptide) cut, remnant not given here) APTSSSTKKTQLQLEHLLLDLQKILNGINNYKNPKLTR[Nle]L[hSer][Yn3]KF[Ygp][Nle]PKKATELKHLQCLEEELKPLEEVL[hSer]LAQSKNFHLRPRDLISNINVIVLELKGSETTF[hSer]CEYADETATIVEFLNRWITFSQSIISTLT	73 pM
CMP-310, Matriptase cleaved molecule (ligand, also: m73 after matriptase cleavage: Lys23 side-chain branch (cleavable peptide) cut, remnant not given here) APTSSSTKKTQLQLEHLLLDLQKILNGINNYKNPKLTR[Nle]L[hSer][Yn3]KF[Ygp][Nle]PKKATELKHLQCLEEELKPLEEVL[hSer]LAQSKNFHLRPRDLISNINVIVLELKGSETTF[hSer]CEYADETATIVEFLNRWITFSQSIISTLT	6.9 nM
CMP-311, Matriptase cleaved molecule (ligand, also: m77 after matriptase cleavage: Lys23 side-chain branch (cleavable peptide) cut, remnant not given here) APTSSSTKKTQLQLEHLLLDLQKILNGINNYKNPKLTR[Nle]L[hSer][Yn3]KF[Ygp][Nle]PKKATELKHLQCLEEELKPLEEVL[hSer]LAQSKNFHLRPRDLISNINVIVLELKGSETTF[hSer]CEYADETATIVEFLNRWITFSQSIISTLT	0.512 nM
CMP-311, uPa cleaved molecule (ligand, also: m77 after uPa cleavage: Lys23 side-chain branch (cleavable peptide) cut, remnant not given here) APTSSSTKKTQLQLEHLLLDLQKILNGINNYKNPKLTR[Nle]L[hSer][Yn3]KF[Ygp][Nle]PKKATELKHLQCLEEELKPLEEVL[hSer]LAQSKNFHLRPRDLISNINVIVLELKGSETTF[hSer]CEYADETATIVEFLNRWITFSQSIISTLT	0.548 nM
CMP-310, uPa cleaved molecule (ligand, also: m73 after uPa cleavage: Lys23 side-chain branch (cleavable peptide) cut, remnant not given here) APTSSSTKKTQLQLEHLLLDLQKILNGINNYKNPKLTR[Nle]L[hSer][Yn3]KF[Ygp][Nle]PKKATELKHLQCLEEELKPLEEVL[hSer]LAQSKNFHLRPRDLISNINVIVLELKGSETTF[hSer]CEYADETATIVEFLNRWITFSQSIISTLT	6.79 nM

The next lines start with the values.

Average EC50, pSTAT5 Assay in NK cells	Binder
35 pM	CMP-313, MMP2 cleaved molecule (ligand, also: m81 after MMP2 cleavage: Lys23 side-chain branch (cleavable peptide) cut, remnant not given here) APTSSSTKKTQLQLEHLLLDLQKILNGINNYKNPKLTR[Nle]L[hSer][Yn3]KF[Ygp][Nle]PKKATELKHLQCLEEELKPLEEVL[hSer]LAQSKNFHLRPRDLISNINVIVLELKGSETTF[hSer]CEYADETATIVEFLNRWITFSQSIISTLT
0.117 nM	CMP-314, Matriptase cleaved molecule (ligand, also: matriptase cleavage product, not given here as a sequence, Lys23 side-chain attachment remnant unknown) APTSSSTKKTQLQLEHLLLDLQKILNGINNYKNPKLTR[Nle]L[hSer]Y(9x polyethylene glycol‑azido)KFY(8x polyethylene glycol‑amino)[Nle]PKKATELKHLQCLEEELKPLEEVL[hSer]LAQSKNFHLRPRDLISNINVIVLELKGSETTF[hSer]CEYADETATIVEFLNRWITFSQSIISTLT
0.714 nM	CMP-313, Matriptase cleaved molecule (ligand, also: m81 after matriptase cleavage: Lys23 side-chain branch (cleavable peptide) cut, remnant not given here) APTSSSTKKTQLQLEHLLLDLQKILNGINNYKNPKLTR[Nle]L[hSer][Yn3]KF[Ygp][Nle]PKKATELKHLQCLEEELKPLEEVL[hSer]LAQSKNFHLRPRDLISNINVIVLELKGSETTF[hSer]CEYADETATIVEFLNRWITFSQSIISTLT
65 pM	CMP-314, uPa cleaved molecule (ligand, also: uPa cleavage product, not given here as a sequence, Lys23 side-chain attachment remnant unknown) APTSSSTKKTQLQLEHLLLDLQKILNGINNYKNPKLTR[Nle]L[hSer]Y(9x polyethylene glycol‑azido)KFY(8x polyethylene glycol‑amino)[Nle]PKKATELKHLQCLEEELKPLEEVL[hSer]LAQSKNFHLRPRDLISNINVIVLELKGSETTF[hSer]CEYADETATIVEFLNRWITFSQSIISTLT
0.369 nM	CMP-315, MMP2 cleaved molecule (ligand, also: K23 side chain attached to another sequence, m89 after MMP2 cleavage, product not given here as a sequence) APTSSSTKKTQLQLEHLLLDLQKILNGINNYKNPKLTR[Nle]L[hSer]Y(9x polyethylene glycol‑azido)KFY(8x polyethylene glycol‑amino)[Nle]PKKATELKHLQCLEEELKPLEEVL[hSer]LAQSKNFHLRPRDLISNINVIVLELKGSETTF[hSer]CEYADETATIVEFLNRWITFSQSIISTLT
40 pM	CMP-314, MMP2 cleaved molecule (ligand, also: K23 side chain attached to another sequence, m85 after MMP2 cleavage, product not given here as a sequence) APTSSSTKKTQLQLEHLLLDLQKILNGINNYKNPKLTR[Nle]L[hSer]Y(9x polyethylene glycol‑azido)KFY(8x polyethylene glycol‑amino)[Nle]PKKATELKHLQCLEEELKPLEEVL[hSer]LAQSKNFHLRPRDLISNINVIVLELKGSETTF[hSer]CEYADETATIVEFLNRWITFSQSIISTLT
81 pM	CMP-313, uPa cleaved molecule (ligand, also: K23 side chain attached to another sequence, m81 after uPa cleavage, product not given here as a sequence) APTSSSTKKTQLQLEHLLLDLQKILNGINNYKNPKLTR[Nle]L[hSer]Y(9x polyethylene glycol‑azido)KFY(8x polyethylene glycol‑amino)[Nle]PKKATELKHLQCLEEELKPLEEVL[hSer]LAQSKNFHLRPRDLISNINVIVLELKGSETTF[hSer]CEYADETATIVEFLNRWITFSQSIISTLT
